According to patent US9926375B2, “Anti-endoglin antibodies and uses thereof” (Tracon Pharmaceuticals, Inc., priority 2014, dated 2018):

How the values were obtained:
mouse endoglin [1] = biological target: T1, mouse endoglin (Mus musculus, UniProt Q63961); experiment: Inhibition of mouse BMP binding to mouse endoglin (statement, no method); conditions: statement in description
T1 sequence (Q63961 27-653): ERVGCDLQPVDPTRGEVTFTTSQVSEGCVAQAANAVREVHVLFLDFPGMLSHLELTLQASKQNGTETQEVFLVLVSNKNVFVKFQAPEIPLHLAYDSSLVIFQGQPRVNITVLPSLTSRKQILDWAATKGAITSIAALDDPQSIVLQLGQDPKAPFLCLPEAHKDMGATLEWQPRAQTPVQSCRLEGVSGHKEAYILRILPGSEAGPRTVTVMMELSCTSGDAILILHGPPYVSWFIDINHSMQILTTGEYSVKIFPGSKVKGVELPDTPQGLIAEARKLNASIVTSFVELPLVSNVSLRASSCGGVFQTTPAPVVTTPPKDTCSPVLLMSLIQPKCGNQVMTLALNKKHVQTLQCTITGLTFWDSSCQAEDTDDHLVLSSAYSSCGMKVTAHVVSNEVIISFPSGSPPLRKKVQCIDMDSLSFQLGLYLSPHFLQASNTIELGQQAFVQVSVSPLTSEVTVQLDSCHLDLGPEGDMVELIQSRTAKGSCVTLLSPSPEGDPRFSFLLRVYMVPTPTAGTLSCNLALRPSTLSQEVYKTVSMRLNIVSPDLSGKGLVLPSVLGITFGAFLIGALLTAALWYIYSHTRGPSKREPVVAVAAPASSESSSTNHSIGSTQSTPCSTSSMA

[2] = system: CCl4-induced liver fibrosis model mice; experiment: Carbon tetrachloride-induced liver fibrosis model; type: in vivo, mouse; conditions: for Percentage of fibrosis area (Sirius red-positive area), comparison with isotype-matched antibody group: P<0.05, Bonferroni
Protocol: Seven-week-old female C57BL/6J mice (17˜21 g) were obtained from Japan SLC (Japan).
Mice were divided into 3 groups of 8 mice based on their body weight on the day before the start of the treatment (day 13).
Mice were intraperitoneally administered 5% CCl4 (Sigma-Aldrich, USA) in mineral oil (Sigma-Aldrich) in a volume of 100 μL twice a week (day 0, 4, 7, 11, 14, 18, 21 and 25) after acclimation.
To visualize collagen deposition, sections were cut from paraffin blocks of left lateral liver tissue prefixed in Bouin's solution and stained with picro-Sirius red solution (Waldeck, Germany). For quantitative analysis of fibrosis area, bright field images of Sirius red-stained section were randomly captured using a digital camera (DFC280; Leica Microsystems, Germany) at 100-fold magnification, and the Sirius red-stained positive areas in 5 field/section were measured using ImageJ software (National Institute of Health, USA). The quantification was done in a blinded fashion.
Statistical analyses were performed using Bonferroni Multiple comparison test on GraphPad Prism 4 (GraphPad Software, USA). P values<0.05 were considered statistically significant. Results were expressed as mean±SD.
Eight CCl4-induced liver fibrosis model mice were intravenously administered vehicle supplemented with M1043 Antibody at a dose of 10 mg/kg twice weekly at day 14, 17, 21 and 24. All animals were sacrificed on day 28.

mouse endoglin [3] = biological target: T2, mouse endoglin (Mus musculus, UniProt Q63961); experiment: ELISA binding of M1043 antibody to mouse endoglin; conditions: 10 μg/ml to 0.014 μg/ml; plate coated with mouse endoglin 1 μg/ml
T2 construct: purchased R&D Systems 1320-EN-025
T2 sequence (Q63961 27-581 limits assumed): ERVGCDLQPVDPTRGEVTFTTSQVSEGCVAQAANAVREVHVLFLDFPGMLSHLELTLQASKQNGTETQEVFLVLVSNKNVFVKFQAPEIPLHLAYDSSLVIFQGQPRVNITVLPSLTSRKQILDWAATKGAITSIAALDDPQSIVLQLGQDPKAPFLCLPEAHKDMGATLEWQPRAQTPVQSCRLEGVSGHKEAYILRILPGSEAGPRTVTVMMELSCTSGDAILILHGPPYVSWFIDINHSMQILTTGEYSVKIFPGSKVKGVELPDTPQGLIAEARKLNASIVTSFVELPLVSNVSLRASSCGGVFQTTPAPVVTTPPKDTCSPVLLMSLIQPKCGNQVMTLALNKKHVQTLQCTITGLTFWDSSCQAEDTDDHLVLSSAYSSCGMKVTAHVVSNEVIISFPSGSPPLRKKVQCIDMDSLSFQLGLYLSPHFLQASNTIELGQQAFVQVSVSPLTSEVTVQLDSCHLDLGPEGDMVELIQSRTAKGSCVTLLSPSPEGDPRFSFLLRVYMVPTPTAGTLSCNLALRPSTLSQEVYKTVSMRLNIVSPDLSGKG
Protocol: An ELISA was established to determine the binding of M1043 antibody to mouse endoglin as follows: Nunc Immuno MaxiSorp 96 well flat bottom plates (Fisher, Cat. No. DIS-971-030J) were coated with mouse endoglin (R&D Systems, Cat. No. 1320-EN-025) at 1 μg/ml in PBS overnight at 4° C. The following day the plate was washed three times with PBST before blocking with PBST/3% Marvel at room temperature for 1 hour. After blocking, the plate was washed three times with PBST, and varying concentrations (10 μg/ml to 0.014 μg/ml in three-fold serial dilutions) of either M1043 or an irrelevant rat IgG1 (Affymetrix, Cat. No. 14-4301) in PBST/3% Marvel were added to the plate and incubated for 1 hour at room temperature. Binding of the antibodies was detected via anti-rat IgG peroxidase (Sigma, Cat. No. A9037) and TMB single solution substrate (Invitrogen, Cat. No. 00-2023). The reaction was stopped by adding 3 M HCl and OD450 nm values were measured on a Dynex MRX TCII plate reader.

[4] = 10 mg/kg IV twice weekly, day 28, mean ± SD, n = 8
[5] = isotype-matched antibody vs disease control, M1043 Antibody vs isotype-matched antibody

B1: M1043: rat IgG1 antibody that binds mouse endoglin and competitively inhibits mouse BMP binding; VH SEQ ID NO: 124, VL SEQ ID NO: 125 (antibody, V domains shown)
VH: QVQLQQSGAELVKPGSSVKISCKASGYTFTSYDMHWIKQQPGNGLEWIGWIYPGNGNTKYNQKFNGKATLTADKSSSTAYMQLSSLTSEDSAVYFCARGKFGVGDYWGQGVMVTVSS
VL: DTVLTQSPALAVSPGERVSISCRASEGVNSYMHWYQQKPGQQPKLLIYIASNLASGVPARFSGSGSGTDFTLTIDPVEADDTATYFCQQSWNDPYTFGAGTKLELKR
B1 was tested, and the “Effect on mouse BMP binding to mouse endoglin” value (mouse endoglin [1]) was “competitively inhibit mouse BMP binding”, the “General condition / abnormal findings” value ([2]; 10 mg/kg IV twice weekly) was “no abnormal findings were observed” and the “Body weight on the day of sacrifice” value [2, 4] was 20.5 ± 0.7 g. The Liver weight [2, 4] was 896 ± 48 mg, the “Sirius red-positive area (fibrosis area)” value [2, 4] was 2.07 ± 0.52% and the “Percentage of fibrosis area (Sirius red-positive area), comparison with isotype-matched antibody group” value ([2]; listed as Antibody M1043) was “significant reduction of collagen deposition”. The “Percentage of fibrosis area (Sirius red-positive area), comparison with isotype-matched antibody group” value ([2]; listed as M1043 Antibody) was “significantly decreased”, the “Collagen deposition and bridging fibrosis in Sirius red-stained liver sections” value ([2]; histology, day 28) was “lower collagen deposition with less frequent formation of bridging fibrosis” and the “Body weight changes, comparison between groups” value [2, 5] was “no significant differences”. For the same molecule, the “Body weight on the day of sacrifice, comparison between groups” value [2, 5] was “no significant differences”, the “Mean liver weight, comparison between groups” value ([2]; isotype-matched antibody vs disease-control, M1043 Antibody vs isotype-matched antibody) was “no significant difference in mean body weight” and the “Binding to mouse endoglin (ELISA)” value (mouse endoglin [3]) was “binds specifically to mouse endoglin”.
